Measurements: PMC5095800, “A standardized production pipeline for high profile targets from Mycobacterium tuberculosis” (Proteomics. Clinical Applications, 2016)

Target: the molecule itself
Assay: SEC

B1: Ferritin BfrB (natural protein)
chain: MTEYEGPKTKFHALMQEQIHNEFTAAQQYVAIAVYFDSEDLPQLAKHFYSQAVEERNHAMMLVQHLLDRDLRVEIPGVDTVRNQFDRPREALALALDQERTVTDQVGRLTAVARDEGDFLGEQFMQWFLQEQIEEVALMATLVRVADRAGANLFELENFVAREVDVAPAASGAPHAAGGRL
notes: also called Rv3841; copies: 24
stoichiometry N: 24
